Laboratory results: IntAct's records for PubMed 19037309

B1: DELLA protein GAI (Arabidopsis thaliana (Mouse-ear cress)), Q9LQT8 (parent)
chain: MKRDHHHHHHQDKKTMMMNEEDDGNGMDELLAVLGYKVRSSEMADVAQKLEQLEVMMSNVQEDDLSQLATETVHYNPAELYTWLDSMLTDLNPPSSNAEYDLKAIPGDAILNQFAIDSASSSNQGGGGDTYTTNKRLKCSNGVVETTTATAESTRHVVLVDSQENGVRLVHALLACAEAVQKENLTVAEALVKQIGFLAVSQIGAMRKVATYFAEALARRIYRLSPSQSPIDHSLSDTLQMHFYETCPYLKFAHFTANQAILEAFQGKKRVHVIDFSMSQGLQWPALMQALALRPGGPPVFRLTGIGPPAPDNFDYLHEVGCKLAHLAEAIHVEFEYRGFVANTLADLDASMLELRPSEIESVAVNSVFELHKLLGRPGAIDKVLGVVNQIKPEIFTVVEQESNHNSPIFLDRFTESLHYYSTLFDSLEGVPSGQDKVMSEVYLGKQICNVVACDGPDRVERHETLSQWRNRFGSAGFAAAHIGSNAFKQASMLLALFNGGEGYRVEESDGCLMLGWHTRPLIATSAWKLSTN
partner: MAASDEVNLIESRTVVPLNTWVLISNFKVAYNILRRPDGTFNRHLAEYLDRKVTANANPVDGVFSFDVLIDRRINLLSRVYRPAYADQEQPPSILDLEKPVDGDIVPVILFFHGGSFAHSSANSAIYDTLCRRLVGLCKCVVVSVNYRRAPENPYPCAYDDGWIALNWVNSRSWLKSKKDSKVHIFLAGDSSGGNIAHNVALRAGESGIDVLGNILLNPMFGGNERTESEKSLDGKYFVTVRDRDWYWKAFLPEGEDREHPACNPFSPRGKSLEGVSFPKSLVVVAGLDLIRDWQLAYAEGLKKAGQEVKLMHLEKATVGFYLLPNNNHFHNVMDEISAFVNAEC

Variants of: B1
Conditions: with gid1a_arath GID1A

Variant | effect of a mutation on the interaction
L31A;V38A | disrupting interaction
Y36A | decreasing interaction

The next lines start with the values.

effect of a mutation on the interaction | Variant
disrupting interaction | Y36A;M43A
disrupting interaction | E51R;E54R
